Source: the supplement of paper PMC9170038

Test system: MS2 coat protein
Assay: apparent KD of MS2 coat protein; designed switch direction (-1 OFF switch, 1 ON switch): -1; higher = weaker reporter binding
In short: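 The apparent KD reported per design is the median over clusters of curve fits to normalised cluster fluorescence. The RNA switches were transcribed on Illumina chips by stalled E. coli RNA polymerase. SNAP-549-labelled MS2 coat protein was titrated from 0.7 or 1.5 nM, doubling up to 3 µM, in Tris-HCl pH 7.5 buffer containing KCl, MgCl2, BSA, DTT, tRNA and Tween-20, with no input, 200 uM small-molecule ligand, or an oligonucleotide input.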

[1] = input ligand: microRNA oligo, concentration not stated
[2] = Eterna round: R95, input ligand: microRNA oligo, concentration not stated
[3] = Eterna round: R95, input ligand: FMN 200 uM
[4] = Eterna round: R95, input ligand: none

Sequence | apparent KD of MS2 coat protein (input ligand: FMN 200 uM) | apparent KD of MS2 coat protein (input ligand: none) | apparent KD of MS2 coat protein [1] | apparent KD of MS2 coat protein [2] | apparent KD of MS2 coat protein [3] | apparent KD of MS2 coat protein [4]
AUAUUACAUGAGGAUCACCCAUGUGAGGAUAUGGAGCGAGACUGUCCUGUCGCGUACACCAGAAGGCGCGGGCG [1st #53] (Eterna round: R97, puzzle: Exclusion 1) | 27.5 nM | 31 nM |  |  |  | 
AUAUUACAUGAGGAUCACCCAUGUGAGGAUAUGGAGCGCGACCGCCCGGUCGCGUACACCAGAAGGCGCGGGCG [1st #57] (Eterna round: R97, puzzle: Exclusion 1) | 46.2 nM | 22.3 nM |  |  |  | 
AUCAGCUCGUCAGGAUAUACAUGAGGAUCACCCAUGUGGUCAUUAGCAGCUUCGGCUGCAUUAAUGUAGAAGGGACGAGCUGAU [ENG2/8-B2] (Eterna round: R96, puzzle: Exclusion NG 2) | 544 nM | 502 nM | 522 nM |  |  | 
AUCAGCUCGUGAGGAUAUGAACAUGAGGAUCACCCAUGUAAGAUCAAGCUGCUUCGGCAGCAAGUUCAGAAGGUACGAGCUGAU [ENG2/10-C3] (Eterna round: R96, puzzle: Exclusion NG 2) | 197 nM | 139 nM | 78.1 nM |  |  | 
AUCAUGUGAGGAUAUGUGAUCAACCUUCUGUAUAGAUGAUUACAGAAGGCACAUGAGGAUCACCCAUGUAGAUC [Ex4 - 3 - 21] (puzzle: Exclusion 4) |  |  |  | 55.7 nM |  | 
AUCCUUAACAAGGAUAUCGGGCGGGAAAUUGUUUGAGAAGGUGUAACAUGAGGAUCACCCAUGUUAAACGUGGA [-18.8, -18.6 kcal, A 32%] (Eterna round: R97, puzzle: Exclusion 6) | 22.3 nM | 23.4 nM |  |  |  | 
AUCGUGAAGAAGGAUAUGGGCCCGGUAAUACGACUAGAAGGUCUGACAUGAGGAUCACCCAUGUGAUACCAAAA [Arorquis] (puzzle: Exclusion 6) |  |  |  | 33.3 nM | 32.2 nM | 32.5 nM
AUCGUGCAGCAAAGCUGUACGAGUACAUGAGGAUCACCCAUGUAGGAUAUGGUACGCUUUGCGUGCUAGAAGGAUAUGUGUAGG [Mat - Exclusion NG 3 - Mod of JL - D83] (Eterna round: R96, puzzle: Exclusion NG 3) | 35.7 nM | 35.7 nM | 31 nM |  |  | 
AUCGUGCAGCUUUGCUGUACGAGUACAUGAGGAUCACCCAUGUAGGAUAUGGUACGCAAAGCGUGCUAGAAGGAUAUGAGAUGU [Mat - Exclusion NG 3 - Mod of JL - D98] (Eterna round: R96, puzzle: Exclusion NG 3) | 30.4 nM | 31.6 nM | 25.2 nM |  |  | 
AUCGUGUGAGGAUAUCGAUUAUGGAGGUCUAGGUCCAUACGCGAGAAGGCACAUGAGGAUCACCCAUGUAAUGG [jl-ex4-4.31 ViennaUCT mod] (Eterna round: R97, puzzle: Exclusion 4) | 126 nM | 309 nM |  |  |  | 
AUGGGUCCUCACGGAGCUACAUGAGGAUCACCCAUGUGGAUUGAGGAUAUCGUAACCCGACGGGACGAGAAGGCAGUUUACUGU [Ex NG3 #98] (Eterna round: R96, puzzle: Exclusion NG 3) | 63.1 nM | 29.4 nM | 23 nM |  |  | 
AUGGUUCGAUUAGGAUAUUAUAGAUUGAAUAGUAUGAUUUACAUGAGGAUCACCCAUGUUACAUUUAAGAAGGAAUCGAAUCAU [JR_ExcNG2_Sub088] (Eterna round: R96, puzzle: Exclusion NG 2) | 13.9 nM | 21.5 nM | 13.2 nM |  |  | 
AUGUAAGCGGAGGAUAUCUGGUGGAUACAGAUGGGAGAAGGUCGCACAUGAGGAUCACCCAUGUCGCAGAGAUG [Eternabot (L2) Solution 83] (Eterna round: R97, puzzle: Exclusion 6) | 44.1 nM | 55.3 nM |  |  |  | 
AUGUGACAUGAGGAUCACCCAUGUGAGGAUAUCAUGCUUCGUAGUAAACUACGAAGUGUGAGAAGGCACAUAAC [Omei Ex1 E7] (Eterna round: R97, puzzle: Exclusion 1) | 357 nM | 80.2 nM |  |  |  | 
AUUAAACAUGUAGGAUAUGCGUAGCAAAGCUAUGCAGAAGGACAUGAGGAUCACCCAUGUAAAAGCGUCUGAGUACAGAUGCAA [Mat - Exclusion NG 1 - Mod of JL - D88] (Eterna round: R96, puzzle: Exclusion NG 1) | 936 nM | 47.6 nM | 40.5 nM |  |  | 
AUUAACAUGUUGAUCAAAUACAUGAGGAUCACCCAUGUAUGCUUUUUGCUCGAUAAGAUCAACUAAUUAAUUAAUUA [StovNew/1-B] (Eterna round: R97, puzzle: Sensor, turn-off variant 1) | 13.9 nM | 12.6 nM |  |  |  | 
AUUAAUUGUCAGAUGGGUGACAUGAGGAUCACCCAUGUCACAAGCUUUUUGUUCGUCUUAUAAUUAACCCAUCUGAC [Stov1/11-B2] (Eterna round: R97, puzzle: Sensor, turn-off variant 1) | 13.8 nM | 14.4 nM |  |  |  | 

Sequence | apparent KD of MS2 coat protein (input ligand: FMN 200 uM) | apparent KD of MS2 coat protein (input ligand: none) | apparent KD of MS2 coat protein [1] | apparent KD of MS2 coat protein [2] | apparent KD of MS2 coat protein [3] | apparent KD of MS2 coat protein [4]
AUUACGUCAGGAUAUGCGUGUUAGACAUGUUUAACCUAAGAACAUGAGGAUCACCCAUGUAGAAGGGACGCUCA [Eternabot (L1) Solution 78] (Eterna round: R97, puzzle: Exclusion 2) | 68.9 nM | 64.9 nM |  |  |  | 
AUUAUAUAGACAGGAUAUAGAAUAUUAUUUUAACAUGAGGAUCACCCAUGUAACCUUAUGUGUAGCUAGAAGGGUCAUUUAUUA [Title] (Eterna round: R96, puzzle: Exclusion NG 2) |  |  | 77.4 nM |  |  | 
AUUAUAUAGAUAGGAUAUAGAAUAUUAUUUUAACAUGAGGAUCACCCAUGUAACCUUAUGUGUAGCUAGAAGGAUCAUUUAUUA [Title] (Eterna round: R96, puzzle: Exclusion NG 2) |  |  | 69.5 nM |  |  | 
AUUAUAUAGGAAGGAUAUAGAAUAUUAUUUUAACAUGAGGAUCACCCAUGUAACCUUAUGUGUAGCUAGAAGGUCCAUUUAUUA [Title] (Eterna round: R96, puzzle: Exclusion NG 2) |  |  | 95.6 nM |  |  | 
AUUAUGUAAGGAUAUCUUACAUGUGACUUCGGUCACUGUUAAGAGAAGGUACAUGAGGAUCACCCAUGUAUAAC [Ex4-3: 48] (puzzle: Exclusion 4) |  |  |  | 18.8 nM |  | 
AUUGAUAGCACAGGAUAUUGAGAUUUGAAUUGACAAGAAGGGUGUACAUGAGGAUCACCCAUGUAAUGGCUGCCUCGUUGAUUA [JR_ExcNG1_Sub005] (Eterna round: R96, puzzle: Exclusion NG 1) |  |  | 45.6 nM |  |  | 
AUUGGGCAAGCAUGAUCCCACAUGAGGAUCACCCAUGUGUUCGUCUUAUAGGCUGCUGAGGCUUUUGCCUCGGUGGC [LRO Sensor-off var1-02 loose mod of D91 from Mat747] (Eterna round: R97, puzzle: Sensor, turn-off variant 1) | 706 nM | 875 nM |  |  |  | 
AUUGUUUGAUACCUUUAAUACAUGAGGAUCACCCAUGUUAUCGAGGAUAUGUAGAAGAGAUGAGAACAGAAGGCGAAGUAAGAG [JR_ExcNG3_Sub096] (Eterna round: R96, puzzle: Exclusion NG 3) | 21.3 nM | 16.5 nM | 11.1 nM |  |  | 
AUUUACGGAGGAUAUACUUGAGGAUCACCCAAGUGGAGUCCCGUUUGGGCGGUAAAUAGUAGAAGGCCGUCCCA [jl-ex3-4.45 ViennaUCT mod] (Eterna round: R97, puzzle: Exclusion 3) | 20.2 nM | 13.3 nM |  |  |  | 
AUUUAGAGAGGAUAUAUAUUUUAAAACAUGAGGAUCACCCAUGUAAUUUUAUGGGAGAAAAUAGAAGGCUCAUUUA [JMFs Solution 1] (puzzle: Exclusion 5) |  |  |  | 205 nM | 114 nM | 197 nM
AUUUUAACAUAGGAUAUCGAAUUUAUUAUUUAACGAGAAGGAUGAACAUGAGGAUCACCCAUGUGGUAUCAUGA [Mat - Exclusion 6 - JL Mod - D21] (puzzle: Exclusion 6) |  |  |  | 40.6 nM | 72.8 nM | 45.9 nM
CAAAAGGAAGGAUAUGAUAAGCAGGACAUGAGGAUCACCCAUGUGACUGCCUCGUGGACAUCAGAAGGUCCAGGAC [Erqureorle] (puzzle: Exclusion 5) |  |  |  | 17.2 nM | 43.2 nM | 13.8 nM
CAAACCAGAGGAUAUGCGCAUAGAUCAGACUUUGUUUCUGAACAUGAGGAUCACCCAUGUAGAAGGCUGUAAAA [Ex2 #83] (Eterna round: R97, puzzle: Exclusion 2) | 28.1 nM | 29.7 nM |  |  |  | 
CAACCACGUGCAGGAUAUGCGAAGUGAUUCGGUGGUACCACAGCGUAAACAUGAGGAUCACCCAUGUAGAAGGGCAUGAGGGCU [Eternabot solution 16] (Eterna round: R96, puzzle: Exclusion NG 2) | 352 nM | 123 nM | 119 nM |  |  | 
CAAGCUUUGCGAGGAUAUGAUGGCCUAUAUGCCUCAGAAGGCGCAGAUACUUGAGGAUCACCCAAGUGAUGCAAAUACGAAAAU [Mutated MS2 EX1.17] (Eterna round: R96, puzzle: Exclusion NG 1) | 71.3 nM | 20 nM | 17.4 nM |  |  | 
CAAUGACAUGAGGAUCACCCAUGUGAGGAUAUGGAGCGAGACCGCGCGGUCGCGUACACCAGAAGGCGCAGGCG [1st #66] (Eterna round: R97, puzzle: Exclusion 1) | 89.3 nM | 37.9 nM |  |  |  | 
CAAUGUGCUGAGGAUAUCUGCAGGUUGGGCCUGGGAGAAGGCGGCACAUGAGGAUCACCCAUGUGACCGAAAUA [EX6 A.17] (Eterna round: R97, puzzle: Exclusion 6) | 78.5 nM | 39.3 nM |  |  |  | 
